This sample holds only a part of the variants without activity.
B1: TPR 5TU (parent)
chain: GGAUCUUCUCGAUCUAACAAAAAAGACAAAUCUGCCACAAAGCUUGAGAGCAUCUUCGGAUGCAGAGGCGGCAGCCUUCGGUGGCGCGAUAGCGCCAACGUUCUCAACUAUGACACGCAAAACGCGUGCUCCGUUGAAUGGAGUUUAUCAUG

Variants of: B1
Assay: polymerase ribozyme fitness, log enrichment relative to wild type (log ratio); higher = more active; in vitro selection for triplet polymerase activity
Method in brief: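 After PCR construction and transcription, each subunit's mutant library from a heterodimeric triplet polymerase ribozyme was annealed with a biotinylated primer, the partner subunit and triplets. Incubation was frozen, at −7 °C, and extended constructs were gel-excised, bound to streptavidin beads and amplified by RT-PCR, in one selection round done in triplicate. Fitness is the logarithm of a genotype's enrichment divided by that of the wild type, from inverse-variance-weighted replicate averages of Illumina-sequenced inputs and outputs. The base of the logarithm is 2, and genotypes needed ≥10 input reads and ≥1 read per output.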

Row | Variant | polymerase ribozyme fitness (log ratio)
1 | G84A C103U | -2.51
2 | G84A C103G | -2.32
3 | G83C U102G | -4.12
4 | G84A U101G | -0.429
5 | G83A G88C A91G C95U A137G | ≤ -4.2
6 | G86U A121U | -0.702
7 | G83C G117U C131U | -0.254
8 | G84A C116A | 0.83
9 | U82C U101A | 0.112
10 | C85U C96A | -0.931
11 | C87G G94C A98G | -3.08
12 | C85U A107C C131U | -4.07
13 | G83U C93G A121U | ≤ -4.2
14 | C87G C125U | ≤ -4.2
15 | G84U A89U A98U G126U | -0.825
16 | C85A C114U | -3.28
17 | G83C G92C G100A U104G U146A | ≤ -4.2
18 | G84U U102G A110G | ≤ -4.2
19 | G83C U101A | -1.07
20 | C85U A122U | -0.795
21 | C85A U130G | -3.53
22 | C85U C116U A147U | 0.541
23 | C85U C123U U127C | -1.83
24 | G83C U104G C118A | -3.08

Row | Variant | polymerase ribozyme fitness (log ratio)
25 | G86C A97U A98U | -3.05
26 | C85U A121C G141U | 2.08
27 | G83A G92U C96A A147C | -3.05
28 | C85U A91C | ≤ -4.2
29 | G83C C99G | -3.88
30 | G84U G117U C123A | -1.62
31 | C87A G126U | ≤ -4.2
32 | C87A G126C | -4.16
33 | C85A G86U A110C C131A | ≤ -4.2
34 | G84A A142U | -0.702
35 | G84A A147G | -2.67
36 | G83C C87G C114U A120U A138G | ≤ -4.2
37 | C85U G88A | -3.73
38 | G83C A113U U145C | -3.3
39 | C85U A137C | -3.1
40 | C85U C125A | -1.45
41 | G83U C95U C116U | -2.67
42 | C85G G141U | -0.649
43 | C85G C116U U144G | -0.537
44 | C85G A115U | -3.56
45 | G84A G117A C129A | -2.45
46 | G86A A89G | -3.55
47 | U82G G92C A106G C116U U135C A150G | ≤ -4.2
48 | C85G C103A G140U | ≤ -4.2

Row | Variant | polymerase ribozyme fitness (log ratio)
49 | G84A U102G C125G | -3.78
50 | C85U C95A | -0.427
51 | G84A C87U C95G A142C | -2.26
52 | C87A A91C | ≤ -4.2
53 | C85U A147U | -0.285
54 | G83A U101G U135C C149A | ≤ -4.2
55 | G86U C149U | -2.48
56 | C85U A106U A113C A115U | ≤ -4.2
57 | U82C A89U C96G G100A A106U C114U A137C | ≤ -4.2
58 | U82G G133C G140A | -3.39
59 | G83A C93U A107G | ≤ -4.2
60 | C85G A150C | -4.1
61 | C85G A150G | -2.67
62 | G84A G126U | -0.0664
63 | G84A G126A | 0.571
64 | C85G U145A | -1.65
65 | C85G U145C | -2.42
66 | C87A A89C G124C U148A | ≤ -4.2
67 | U82G A107U | -2.6
68 | G84U G141C U144A | ≤ -4.2
69 | G84U A150G | -2.7
70 | C85A A97U | -2.65
71 | C85U A106G | -0.585
72 | C85U A106C | -3.33

Row | Variant | polymerase ribozyme fitness (log ratio)
73 | G84A G94A C125A | -1.7
74 | G83A C125U | -1.29
75 | C85A C87G G88C A97G U130G G141C | ≤ -4.2
76 | G86A U111C | -3.31
77 | C85G G92C G128A | ≤ -4.2
78 | G83C G143U | -2.8
79 | G86U A97U | -1.74
80 | C85U G141A | -0.0572
81 | G83A G141A | 0.227
82 | G83A G143A | -1.28
83 | G84A G152A | -2.93
84 | G84C U101A A122G G126U | -3.41
85 | C85U G94U | 0.0431
86 | C85U A119G | -1.31
87 | C85U A119C | -0.984
88 | C87A U90G C99G | ≤ -4.2
89 | G84A U101C U146A | -0.212
90 | C85G C105U | -1.58
91 | U82G G92C | -1.23
92 | G83C A97U C103G U139C | ≤ -4.2
93 | G83U U104C | -0.855
94 | C85U A119C C131G G141C | -0.0963
95 | C85U U146C | -0.574
96 | G86U C93A | -0.194

Row | Variant | polymerase ribozyme fitness (log ratio)
97 | G83U C118A | -1.04
98 | G83A C129G | -3.81
99 | C85A G141A U146G | -1.68
100 | U82G A89C A98G A142C | -1.56
101 | C85A C103A C125A | -3.33
102 | C85U A89U | -0.431
103 | G83U C116U A122C | -2.43
104 | C85U C105G A142U | -2.01
105 | G83C C95U | -1.81
106 | U82G C93U G141A | -0.284
107 | C87A G88U | ≤ -4.2
108 | G83C G124A A137G | -1.97
109 | G84A U109G C114G U135G | ≤ -4.2
110 | C85U U90C C103A | ≤ -4.2
111 | C85U A119U A138C U145A | -3.86
112 | G83U C103U C116A G117A U148A | ≤ -4.2
113 | U82C U90G | ≤ -4.2
114 | G83A C118G | -0.683
115 | G86U A122G | -2.43
116 | G86U A122U | -1.8
117 | C85U U144C | 0.118
118 | G83U U135A | -1.05
119 | G83U G94A U127C | -3.92
120 | U82G G92C A113U | -3

Row | Variant | polymerase ribozyme fitness (log ratio)
121 | G83C A89C G126A | -0.834
122 | C85A C108U | -3.66
123 | C87A C99U | ≤ -4.2
124 | U82G C93U | -1.51
125 | U82G A91U C114A A119U A121C G133C | ≤ -4.2
126 | G84U U134A U144C A150U | ≤ -4.2
127 | G84A U102A C132U | -2.3
128 | C85U U104A U144A | -0.68
129 | U82G A106U C118U | -0.65
130 | C85U C87U A150G | -1.59
131 | C87A G141C | ≤ -4.2
132 | G83A G94A | -1.17
133 | U82G C95G | -1.65
134 | G86U A89G G92A | ≤ -4.2
135 | C85U C99G U111C A142G | ≤ -4.2
136 | G83C C118A | -1.14
137 | C87A C95U G141C | -4.16
138 | C85U A97U | -2.44
139 | G83U C85A | -3.55
140 | G83A C116U | -0.551
141 | G84A A91G A122C | -3.61
142 | C87G C114U | -4.08
143 | C85A G133C U134G U145G | ≤ -4.2
144 | C85U C108G G143A A150G | -3.95

Row | Variant | polymerase ribozyme fitness (log ratio)
145 | G84A C116G A121U | 0.52
146 | G84U G141C | -2.49
147 | C85G U104A | -2.4
148 | C85G U104C | -2.69
149 | C85U A115C | -0.617
150 | C85G C87U U145G | -3.08
151 | G83A C132U | -0.931
152 | C87G A97U | ≤ -4.2
153 | G84U C116U | -2.7
154 | G84U C116G | -1.58
155 | G86U A97U C132A | ≤ -4.2
156 | C85G G128A | ≤ -4.2
157 | G83U A97U C105U G117U G141U | ≤ -4.2
158 | C85G G112C A138U C149A | ≤ -4.2
159 | G83A C87U A106C C125G G152A | -3.25
160 | C87A A107G A110G A120G U139C G140A A147G | ≤ -4.2
161 | G86A C87U | -3.65
162 | U82G C95U U102G | -3.59
163 | C85U G86U C105U U135A A150C | ≤ -4.2
164 | C85U C118U G141U | 0.748
165 | C85A G140C | -3.64
166 | G86U G152U | ≤ -4.2
167 | C85G G117A | -2.7

From the RNAGym collection of RNA variant scans (doi:10.1073/pnas.2313332121)
